Test [1] has as its target T1, mouse GalNAc-T1 (pKN55-His6-TEV-mGalNAc-T1-∆56) (mouse, UniProt O08912 57-559).
T1 construct: mouse polypeptide N-acetylgalactosaminyltransferase 1 (GalNAc-T1), construct printed as mGalNAc-T1-∆56 (read as lacking the first 56 residues); 98% identical to human GalNAc-T1; The construct has a TEV site after the His6 tag; The start at residue 57 is read from the name ∆56; also called N-acetylgalactosaminyl-transferase 1; source: SD200 16/60 gel filtration before crystallization
T1 sequence (looked up): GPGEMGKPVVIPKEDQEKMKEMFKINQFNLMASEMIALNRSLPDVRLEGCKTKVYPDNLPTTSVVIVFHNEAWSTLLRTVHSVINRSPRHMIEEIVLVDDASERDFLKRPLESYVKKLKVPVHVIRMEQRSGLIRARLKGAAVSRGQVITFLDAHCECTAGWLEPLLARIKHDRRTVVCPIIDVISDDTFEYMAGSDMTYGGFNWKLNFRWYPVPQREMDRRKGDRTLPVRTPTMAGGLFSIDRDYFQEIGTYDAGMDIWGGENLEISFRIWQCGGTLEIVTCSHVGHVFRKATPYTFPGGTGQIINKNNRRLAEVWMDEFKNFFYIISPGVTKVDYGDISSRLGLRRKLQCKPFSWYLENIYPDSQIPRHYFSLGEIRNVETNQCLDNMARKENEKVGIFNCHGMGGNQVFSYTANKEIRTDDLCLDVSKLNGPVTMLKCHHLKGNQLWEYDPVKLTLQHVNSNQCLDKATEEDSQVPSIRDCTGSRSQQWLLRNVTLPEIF
As to the kind of experiment: crystal structure; mouse GalNAc-T1 (5 mg/ml) combined with 4 mM Muc5AC-13, 5 mM UDP and 5 mM MnCl2; hanging drops, 20% PEG-3350, 0.1 M MES pH 6.5; 2.3 Å. As to conditions: both partners purified.

Test [2] has as its target T2, human GalNAc-T1 D444A (α repeat variant) (human) (UniProt Q10472).
T2 sequence: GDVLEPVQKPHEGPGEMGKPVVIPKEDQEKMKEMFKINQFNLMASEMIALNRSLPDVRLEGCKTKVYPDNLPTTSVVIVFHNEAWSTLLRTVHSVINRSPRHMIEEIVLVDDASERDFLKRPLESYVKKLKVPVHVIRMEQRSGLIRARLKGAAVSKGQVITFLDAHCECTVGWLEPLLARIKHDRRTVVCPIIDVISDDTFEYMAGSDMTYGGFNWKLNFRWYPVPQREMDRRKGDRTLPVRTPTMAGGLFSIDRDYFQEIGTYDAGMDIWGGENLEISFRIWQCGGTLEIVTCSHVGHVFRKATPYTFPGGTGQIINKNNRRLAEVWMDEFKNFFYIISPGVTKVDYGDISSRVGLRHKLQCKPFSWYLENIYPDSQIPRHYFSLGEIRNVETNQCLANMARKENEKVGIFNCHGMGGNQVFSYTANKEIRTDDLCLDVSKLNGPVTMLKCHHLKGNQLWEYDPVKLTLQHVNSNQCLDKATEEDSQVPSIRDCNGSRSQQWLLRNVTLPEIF

Test [3] concerns the target T3, human GalNAc-T1 D484A (β repeat variant) (human) (UniProt Q10472).
T3 sequence: T2 sequence with A400D, D440A

Numbering of substitutions follows the chain as printed. No end group written: not given here. *: point of attachment. αGalNAc = CC(=O)N[C@@H]1[C@@H](O)[C@@H](O)[C@@H](CO)O[C@@H]1*

B1: Muc5AC-13 glycopeptide (GTT3PSPVPTTSTT13^GalNAcSAP) (peptide)
peptide: GTTPSPVPTTSTT(αGalNAc)SAP
notes: Muc5AC mucin repeat peptide, 16 residues; numbers count on: the peptide; source: synthetic peptide (Anaspec)
Consider B1, for which the binding result in test [1] is listed as “binds”.

B2: Muc5AC-A3 glycopeptide (GAT3^GalNAc…13PAP) (peptide)
peptide: GAT(αGalNAc)PAPVPAGAGTPAP
For the molecule B2, in test [2], the KM (UDP-Glo), fold increase compared to GalNAc-T1^WT was 10 fold and the kcat/KM (UDP-Glo), fold reduction compared to GalNAc-T1^WT is 16 fold.

B3: Muc5AC-A13 glycopeptide (GAT3…13^GalNAcPAP) (peptide)
peptide: GATPAPVPAGAGT(αGalNAc)PAP
On to B3, for which, in test [3], the KM (UDP-Glo), fold increase compared to GalNAc-T1^WT stood at 20 fold and the kcat/KM (UDP-Glo), fold decrease compared to GalNAc-T1^WT was 29 fold.

The record behind these values is article PMC10901373, “An unusual dual sugar-binding lectin domain controls the substrate specificity of a mucin-type O-glycosyltransferase” (Science Advances, 2024).
